Data taken from patent publication US20250222125A1 (BEIGENE, published 2025).

Experiments:
[1] = molecular target: T1, cyno FGFR2b protein (recombinant) (cyno, UniProt A0A2K5TL97 22-380); assay: SPR, antibody captured by anti-human Fc, cyno FGFR2b
[2] = molecular target: T1, cyno FGFR2b protein (recombinant); assay: ELISA, plate-coated cyno FGFR2b
cyno FGFR2b on cells [3] = molecular target: T2, cyno FGFR2b on cells (cyno, UniProt A0A2K5TL97 22-821); assay: flow cytometry, Expi293 cells overexpressing cyno FGFR2b
T2 sequence (A0A2K5TL97 entry or part of it): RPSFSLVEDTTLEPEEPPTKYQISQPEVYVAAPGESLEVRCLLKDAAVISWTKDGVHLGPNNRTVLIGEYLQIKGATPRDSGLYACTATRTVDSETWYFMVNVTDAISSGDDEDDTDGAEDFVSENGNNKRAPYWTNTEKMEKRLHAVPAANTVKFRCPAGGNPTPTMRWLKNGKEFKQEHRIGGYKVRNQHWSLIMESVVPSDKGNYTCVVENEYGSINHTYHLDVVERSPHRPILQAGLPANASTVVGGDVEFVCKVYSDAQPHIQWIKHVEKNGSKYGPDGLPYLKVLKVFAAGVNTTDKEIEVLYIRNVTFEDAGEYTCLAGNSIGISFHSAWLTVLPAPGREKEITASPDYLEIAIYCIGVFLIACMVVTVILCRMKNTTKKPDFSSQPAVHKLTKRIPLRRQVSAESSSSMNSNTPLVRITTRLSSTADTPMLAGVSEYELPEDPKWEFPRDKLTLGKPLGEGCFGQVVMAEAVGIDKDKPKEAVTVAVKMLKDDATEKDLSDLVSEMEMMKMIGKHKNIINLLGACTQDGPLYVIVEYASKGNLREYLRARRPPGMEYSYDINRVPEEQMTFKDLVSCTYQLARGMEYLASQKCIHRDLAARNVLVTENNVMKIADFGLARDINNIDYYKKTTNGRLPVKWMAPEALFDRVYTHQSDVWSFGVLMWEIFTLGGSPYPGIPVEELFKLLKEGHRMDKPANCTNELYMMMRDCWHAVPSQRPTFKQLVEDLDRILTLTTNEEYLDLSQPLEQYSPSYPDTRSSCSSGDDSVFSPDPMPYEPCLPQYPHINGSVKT

cyno FGFR2b on cells [4] = molecular target: T2, cyno FGFR2b on cells; assay: flow cytometry, cyno FGFR2b OE cells

Kd [1]	koff [1]	kon [1]	EC50 [2]	Emax (A450) [2]	EC50 (cyno FGFR2b on cells [3])	Emax (MFI) (cyno FGFR2b on cells [3])	EC50 (cyno FGFR2b on cells [4])	Binder
20.6 nM	0.00172 s⁻¹	83700 M⁻¹ s⁻¹	0.0469 nM	2.95 A450	8.45 nM	6.25e+06 MFI	–	BGAh9179 (antibody, human IgG1, kappa, V domains shown, also called BGA9179; humanized antibody developed from BGAm1371) VH: QVQLVQSGAEVKKPGASVKVSCKASGYTITDTYIHWVRQAPGQGLEWMGRIDPAEGNTMFASEFQGRVTMTADTSTSTVYMELSSLRSEDTAVYYCARSKIHYDYDEGFAYWGQGTLVTVSS VL: DIVLTQSPDSLAVSLGERATINCRASESVDDYGYSFLHWYQQKPGQPPKLLIYRASNLESGVPDRFSGSGSGTDFTLTISSLQAEDVAVYYCQQSNQNPRTFGGGTKVEIKR
–	–	–	–	–	–	–	0.34 nM	BGA2354 (antibody, human IgG1, lambda, V domains shown, also called M047 (Bayer; BAY1895344)) VH: EVQLLESGGGLVQPGGSLRLSCAASGFTFRTSGMHWVRQAPGKGLEWVAVISYDGSNKYYADSVKGRFTISRDNSKNTLYLQMNSLRAEDTAVYYCARESPGYDFEYWGQGTLVTVSS VL: not shown
–	–	–	–	–	–	–	0.49 nM	BGA1421 (antibody, human IgG1, kappa, V domains shown, also called bemarituzumab; comparator antibody alone (un-conjugated)) VH: QVQLVQSGAEVKKPGSSVKVSCKASGYIFTTYNVHWVRQAPGQGLEWIGSIYPDNGDTSYNQNFKGRATITADKSTSTAYMELSSLRSEDTAVYYCARGDFAYWGQGTLVTVSS VL: DIQMTQSPSSLSASVGDRVTITCKASQGVSNDVAWYQQKPGKAPKLLIYSASYRYTGVPSRFSGSGSGTDFTFTISSLQPEDIATYYCQQHSTTPYTFGQGTKLEIKR
15.7 nM	0.00125 s⁻¹	79700 M⁻¹ s⁻¹	0.0245 nM	3.02 A450	4.73 nM	6.19e+06 MFI	5.02 nM	BGAm1371 (antibody, V domains shown, assays detect or capture it with anti-human IgG; also called parental mouse clone; murine parental antibody of BGAh9179) VH: QVQLKQSGAELVKPGASVKLSCTASGFNIKDTYIHWVKQRPEQGLEWIGRIDPANGNTMFASEFQGKATITAYTSSNTAYMQLSSLTSGDTAVYYCARSKIHYDYDEGFAYWGQGTLVTVSS VL: NIVLTQSPPSLAVSLGQRATVSCRASESVDDYGYSFLHWYQQKPGQPPKLLIYRASNLESGIPARFSGSGSRTDFTLTINPVETDDVATYYCQQSNQNPRTFGGGTKLEIK
24.6 nM	0.0018 s⁻¹	73500 M⁻¹ s⁻¹	0.0551 nM	3 A450	6.27 nM	7.36e+06 MFI	–	BGAm1823 (antibody, V domains shown, assays detect or capture it with anti-human IgG; also called murine parental antibody of BGAh9239) VH: EVQLQQSGAELVKPGASVKISCKASGYAFSIYWMNWVKQRPGKGLEWIGQIYPENGDTNYNGKFKGKATLTADKSSSTAYMHLSSLTSEDSAVYFCARGGFDYWGQGTTLTVSS VL: NIVMTQSPASLSASVGETVTITCRASENIYSNLAWYQQKQGKSPQLLVYTATNLADGVPSRFSGSGSGTQFSLKINSLQPEDFGSYYCQHFYGILYTFGSGTRLEIK
34 nM	0.00272 s⁻¹	79900 M⁻¹ s⁻¹	0.0442 nM	2.93 A450	7.93 nM	6.88e+06 MFI	1.55 nM	BGAh9239 (antibody, human IgG1, kappa, V domains shown, also called humanized antibody developed from BGAm1823) VH: QVQLVQSGAEVKKPGSSVKVSCKASGYTFSIYWLNWVRQAPGQGLEWMGQIYPENADTNYSGKFKGRVTITADKSTSTAYMELSSLRSEDTAVYFCARGGFDYWGQGTLVTVSS VL: DIQMTQSPSSLSASVGDRVTITCRASENIYSNLAWYQQKPGKAPKLLIYTATNLAEGVPSRFSGSGSGTDFTLTISSLQPEDFATYYCQHFYGILYTFGQGTRLEIKR
